Results from patent US6548290 (Harvard, dated 2003).

T1: Xenopus Geminin-H, translated in vitro
T1 sequence: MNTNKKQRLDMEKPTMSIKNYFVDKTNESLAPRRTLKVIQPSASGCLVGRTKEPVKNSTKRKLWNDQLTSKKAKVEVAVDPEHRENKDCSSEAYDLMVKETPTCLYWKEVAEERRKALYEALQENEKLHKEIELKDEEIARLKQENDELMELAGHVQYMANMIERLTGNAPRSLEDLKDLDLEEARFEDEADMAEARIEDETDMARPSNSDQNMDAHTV

T2: geminin^DEL (geminin H with the nine amino acids of the destruction box RRTLKVIQP, 33-41, removed), translated in vitro
T2 sequence: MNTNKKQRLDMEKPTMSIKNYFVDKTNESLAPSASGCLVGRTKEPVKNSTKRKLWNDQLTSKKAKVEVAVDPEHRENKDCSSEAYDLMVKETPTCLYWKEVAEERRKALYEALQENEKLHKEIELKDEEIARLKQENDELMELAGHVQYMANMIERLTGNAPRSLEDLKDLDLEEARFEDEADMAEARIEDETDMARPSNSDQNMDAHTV

T3: Xorc2 (Xenopus, UniProt Q91628 1-558)
T3 sequence (looked up): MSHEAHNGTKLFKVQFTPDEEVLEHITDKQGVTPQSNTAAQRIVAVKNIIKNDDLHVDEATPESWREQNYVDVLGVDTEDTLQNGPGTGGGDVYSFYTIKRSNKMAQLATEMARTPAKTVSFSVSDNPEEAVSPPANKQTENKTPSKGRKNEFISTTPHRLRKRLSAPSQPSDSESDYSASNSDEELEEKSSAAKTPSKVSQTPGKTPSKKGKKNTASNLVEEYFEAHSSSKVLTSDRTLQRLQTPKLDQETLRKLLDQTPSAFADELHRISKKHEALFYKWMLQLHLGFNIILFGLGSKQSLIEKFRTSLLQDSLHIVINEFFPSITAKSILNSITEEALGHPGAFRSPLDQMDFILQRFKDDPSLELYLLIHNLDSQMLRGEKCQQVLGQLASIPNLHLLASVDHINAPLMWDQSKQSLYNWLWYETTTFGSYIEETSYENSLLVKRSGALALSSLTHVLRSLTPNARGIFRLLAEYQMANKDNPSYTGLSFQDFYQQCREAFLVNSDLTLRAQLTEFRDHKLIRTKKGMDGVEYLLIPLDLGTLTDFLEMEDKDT

T4: Xmcm3 (Xenopus, UniProt P49739 1-807)
T4 sequence (looked up): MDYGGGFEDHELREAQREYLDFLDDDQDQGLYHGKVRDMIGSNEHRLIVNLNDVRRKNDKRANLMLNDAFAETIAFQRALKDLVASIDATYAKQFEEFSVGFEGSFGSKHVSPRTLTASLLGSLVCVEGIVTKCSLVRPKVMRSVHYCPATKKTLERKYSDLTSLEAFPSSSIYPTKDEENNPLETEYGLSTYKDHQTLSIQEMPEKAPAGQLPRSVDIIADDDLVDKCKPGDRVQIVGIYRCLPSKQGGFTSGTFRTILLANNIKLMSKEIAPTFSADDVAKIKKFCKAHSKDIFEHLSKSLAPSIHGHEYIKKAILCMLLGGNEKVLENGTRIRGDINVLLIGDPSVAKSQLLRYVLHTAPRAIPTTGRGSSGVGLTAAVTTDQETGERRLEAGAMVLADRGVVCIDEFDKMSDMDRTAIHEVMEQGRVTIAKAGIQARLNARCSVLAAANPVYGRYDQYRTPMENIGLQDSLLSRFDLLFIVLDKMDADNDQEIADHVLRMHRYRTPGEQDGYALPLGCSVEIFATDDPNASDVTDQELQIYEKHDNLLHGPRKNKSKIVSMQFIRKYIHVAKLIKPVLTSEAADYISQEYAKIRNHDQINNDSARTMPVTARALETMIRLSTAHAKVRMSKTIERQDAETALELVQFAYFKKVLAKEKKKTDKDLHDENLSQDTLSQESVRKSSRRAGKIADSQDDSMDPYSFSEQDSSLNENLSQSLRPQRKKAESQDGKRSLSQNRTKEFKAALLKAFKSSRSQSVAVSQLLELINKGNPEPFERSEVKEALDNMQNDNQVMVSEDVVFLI


Assays:
[1] = test system: T1, Xenopus Geminin-H, translated in vitro
[2] = test system: T2, geminin^DEL (geminin H with the nine amino acids of the destruction box RRTLKVIQP, 33-41, removed), translated in vitro
Xorc2 = biological target: T3, Xorc2; test: co-immunoprecipitation (preliminary experiments)
Xmcm3 = biological target: T4, Xmcm3; test: co-immunoprecipitation (preliminary experiments)

binding result (Xorc2) | binding result (Xmcm3) | Molecule | ubiquitin conjugates (ladder on autoradiogram) in a reconstituted ubiquitination reaction [1] | ubiquitin conjugates (ladder on autoradiogram) in a reconstituted ubiquitination reaction [2]
 |  | mitotic anaphase promoting complex (APC) of Xenopus mitotic egg extract | a characteristic ladder of ubiquitin conjugates appeared above the starting material | The ladder did not appear if the destruction box mutant geminin^DEL was used as the substrate
 |  | interphase APC (immunoprecipitated from interphase Xenopus egg extract) | The ladder did not appear ... if the APC was immunoprecipitated from interphase extracts (lane 7) | 
no binding | no binding | geminin (Xenopus; as used in the co-immunoprecipitation experiments) (other) MNTNKKQRLDMEKPTMSIKNYFVDKTNESLAPRRTLKVIQPSASGCLVGRTKEPVKNSTKRKLWNDQLTSKKAKVEVAVDPEHRENKDCSSEAYDLMVKETPTCLYWKEVAEERRKALYEALQENEKLHKEIELKDEEIARLKQENDELMELAGHVQYMANMIERLTGNAPRSLEDLKDLDLEEARFEDEADMAEARIEDETDMARPSNSDQNMDAHTV |  | 
